Measured values from article doi:10.1101/2020.10.28.358481.
Numbering of substitutions follows the chain as printed.

B1: scaffold 1 (RMP at -3) (structured_RNA)
RNA 1: UUUUCAUGCAUCGCGUAGGCUCAUACCGUAUUGAGACCUUUUGGUCUCAAUACGGUA
RNA 2: UGAGCCUACGCGAUG
modifications: strand 2 position 13 (written A) is remdesivir monophosphate (RMP, 1'-cyano)
B2: scaffold 2 (RMP at -4) (structured_RNA)
RNA 1: B1 RNA 1 with U11C, C12U
RNA 2: UGAGCCUACGCAGUG
modifications: strand 2 position 12 (written A) is remdesivir monophosphate (RMP, 1'-cyano); oligo R-4

Target: nsp12 (RdRp catalytic subunit);nsp8;nsp7 (SARS-CoV-2;SARS-CoV-2;SARS-CoV-2, UniProt P0DTD1;P0DTD1;P0DTD1 4393-5324;3943-4140;3860-3942, ||)
Test: cryo-EM

Binder | binding result
B1 | binds
B2 | binds
